Laboratory results as given in the supplement of paper PMC10567573.

B1: PPP2R2B (parent)
chain: PSNRSFFSEIISSISDVKFSHSGR

Variants of: B1
Experiment: protein stability index of a GFP-peptide fusion (GPS, HEK-293T) (PSI 1-6); higher = more stable
Conditions: c terminus: a fixed tail appended
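Also: lentivirally expressed fusions sorted by FACS into six bins by GFP to DsRed ratio, PSI derived from sequencing read proportions per bin multiplied by bin number.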

Protein stability index: each site, then its substitutions
H21: V 2.04 | D 2.54 | K 2.85 | P 2.67 | C 2.22 | N 2.48 | M 2.41 | L 2.03 | A 2.7 | I 2.13 | W 2.31 | E 2.87 | G 2.39 | F 1.88 | S 1.93 | R 3.27 | Q 2.26 | Y 1.97 | T 2.11
V17: Q 2.81 | R 2.31 | C 2.4 | W 2.49 | L 2.75 | D 3.18 | P 2.63 | I 2.53 | K 2.73 | E 3.05 | H 3.21 | M 2.53 | S 2.5 | N 2.9 | G 2.53 | T 2.72 | F 2.18 | A 2.27 | Y 2.29
F19: P 3 | R 2.99 | Q 2.79 | S 3.3 | N 3.15 | H 3.02 | E 3.58 | C 3.03 | D 3.52 | Y 2.57 | A 3.07 | M 2.88 | I 2.43 | K 3.02 | G 2.86 | V 2.5 | T 3.07 | L 2.93 | W 1.97
R24: S 3.12 | N 2.81 | H 1.94 | T 2.33 | W 1.98 | C 1.87 | Y 3.23 | G 2.21 | F 1.65 | L 1.75 | V 1.59 | Q 2.39 | A 2.36 | I 1.61 | P 2.31 | K 2.65 | E 2.94 | D 3.18 | M 1.97
G23: T 2.14 | D 2.72 | Y 2.27 | K 2.49 | F 2.09 | E 2.7 | P 2.74 | M 2.25 | H 2.27 | Q 2.24 | N 2.79 | R 2.54 | S 2.33 | W 2.09 | C 2.36 | A 2.31 | I 1.88 | V 1.66 | L 2.08
K18: P 2.23 | A 2.15 | M 2.02 | S 2.61 | I 2.33 | F 2.17 | D 2.59 | V 2.09 | N 2.36 | L 2.35 | E 2.35 | R 2.55 | G 2.66 | T 2.31 | W 2.38 | Q 2.47 | H 2.04 | Y 1.97 | C 1.94
S22: P 2.38 | R 2.71 | A 2.4 | L 2.48 | K 2.64 | N 2.58 | F 2.19 | W 1.9 | E 2.37 | V 2.06 | I 2.11 | Y 2.2 | Q 2.43 | D 2.79 | H 2.48 | T 2.42 | C 1.89 | M 2.27 | G 2.57
D16: Y 1.61 | L 2.05 | G 2.29 | N 2.57 | R 2.15 | Q 2.42 | H 2.19 | K 2.13 | T 2.28 | V 2.17 | W 1.99 | M 2.02 | I 1.74 | P 2.56 | S 1.92
S20: A 2.39 | R 1.94 | P 2.48 | I 2.22 | T 2.78 | K 2.7 | V 2.33 | W 2.38 | N 2.27 | H 2.18 | G 2.26 | Y 1.75 | L 2.41 | C 2.12 | E 2.94 | D 2.88 | M 1.95 | Q 2.45 | F 2.02
